Where “and” joins values, the source holds several entries; their conditions need not be identical. Identical values can stand only once. Where a SMILES comes first, the peptide text is derived from it. Where no end group is shown, it is not given here. [ ]: non-standard residue; d: D form. Nle = CCCC[C@H](N)C(=O)O; Ahx = NCCCCCC(=O)O
Experiments:
Set8 = biological target: T1, Set8 (Homo sapiens, UniProt Q9NQR1); experiment: In vitro lysine methyltransferase (KMT) activity inhibition assay (Methyltransferase-Glo); type: biochemical
T1 construct: made in house; host or cells: Escherichia coli BL21 (DE3) RP
T1 sequence (Q9NQR1 191-352 isoform Q9NQR1-2): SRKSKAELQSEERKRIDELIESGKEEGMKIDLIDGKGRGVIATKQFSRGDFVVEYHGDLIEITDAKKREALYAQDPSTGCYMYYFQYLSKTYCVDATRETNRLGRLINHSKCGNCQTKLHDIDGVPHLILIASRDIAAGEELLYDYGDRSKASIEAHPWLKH

HCT 116 cells [1] = experiment: Cell viability assay (Resazurin reduction); type: cell-based
Description: Cell viability was measured using the Resazurin reduction assay which indirectly quantifies living cells through the metabolically active reduction of resazurin to fluorescent resorufin. This assay allows to maintain cells viability and, therefore, to monitor cell growth with time. Exponentially growing HCT 116 cells were seeded into 96-well plates at the density of 2.0×10^4 cells/mL and incubated overnight. The media was replaced with fresh media prior to inhibitor treatment. Cells were treated with 10 μM of inhibitor peptide for 24 hr. All the inhibitors were diluted in the cell culture media (DMEM−/−) from 5 mM stock. All the treated cells were compared to the control (no treatment with equivalent quantity of DMSO) which were considered as 100% viable. One set of wells also prepared with medium only for background subtracting and instrument gain adjustment. The experiments were carried out in triplicate and expressed as mean+−SD. A 10% resazurin solution (0.15 mg/ml stock dissolved in PBS, filter sterilized and stored protected from light at 4° C.) was then added to each well and incubated for 2 hr. The fluorescence was recorded using a multiwell plate reader (Perkin Elmer) at Ex. 560 nm and Em. 610 nm.
Briefly cells were treated with different concentrations of inhibitor for 24 hr ranging from […]. The working dilutions of all the inhibitors were prepared in DMEM−/− media. […]

[2] = tested on: H4K20 mono-methylation in HCT 116 cells; experiment: Histone H4K20 mono-methylation western blot in treated cells; type: cell-based; details: HCT 116, 24 hr post dosing, 0-10 nM
Description: The topmost inhibitor, KBL9-TAT, from all the above experiments were tested for histone methylation status in HCT 116 cells. 3×10^6 cells were plated in 10 cm dish and incubated overnight. Cells were then treated with the inhibitors at various concentrations (0, 0.5, 1, 2, 5, 10 nM). Cells (5×10^6 cells/mL), 24 hr of post dosing, were collected in 15 mL falcon tube and centrifuged at 300×g for 10 min. The supernatant was discarded and the cells are washed with iced cold PBS. The cell pellet is flash-frozen in liquid nitrogen and stored at −80° C. Histone isolation is done using standard protocol. To summarize, cells were re-suspended in 1 mL hypotonic lysis buffer (10 mM Tris-HCl pH 8, 1 mM KCl, 1.5 mM MgCl2 and 1 mM DTT) containing protease inhibitor. The cells were transferred to 1.5 mL tube and incubated for 30 min on rotor at 4° C. to promote hypotonic swelling and lysis. The intact nuclei are collected by centrifugation at 10,000×g for 10 min in a cooled tabletop centrifuge. […]
For western blot, of total of […] of histones were separated on 15% SDS-PAGE and transferred overnight at 15V on PVDF membrane. […] Histone proteins were detected by Supersignal™ West Pico PLUS Chemiluminescent substrate (ThermoFisher Scientific) using the Chemidoc XRS+imaging system (BioRad).

HCT 116 cells [3] = experiment: Chemosensitivity to doxorubicin (Resazurin reduction); type: cell-based; details: HCT 116 pre-treated with 2 uM for 24 hrs, dox 16 hrs, normalized to TAT-alone
Description: Inhibitor-induced sensitivity of HCT 116 cells to a chemotherapeutic agent, namely doxorubicin (dox), was measured using the Resazurin reduction assay. This assay allows to maintain cells viability and, therefore, to monitor cell growth with time. Exponentially growing HCT 116 cells were seeded into 96-well plates at the density of 2.0×10^4 cells/mL and incubated overnight. The media was replaced with fresh media prior to inhibitor treatment. Cells were pre-treated with 2 μM of inhibitor peptide for 24 hr. Peptide was diluted in the cell culture media (DMEM−/−) from 5 mM stock. All the treated cells were compared to the control (TAT peptide alone with equivalent quantity of DMSO) which were considered as 100% viable. One set of wells also prepared with medium only for background subtracting and instrument gain adjustment. Following 24 hr peptide treatment, dilutions of dox were added to cells (0, 0.001, 0.002, 0.01, 0.02, 0.1, 0.2, 1, 2 uM) and incubated for 16 hrs. The experiments were carried out in quadruplicate and expressed as mean+−SD. A 10% resazurin solution (0.15 mg/ml stock dissolved in PBS, filter sterilized and stored protected from light at 4° C.) was then added to each well and incubated for 2 hr. The fluorescence was recorded using a multiwell plate reader (Perkin Elmer) at Ex. 560 nm and Em. 610 nm.

HCT 116 cells [4] = experiment: Flow cytometry of BrdU incorporation (DNA replication); type: cell-based; details: HCT 116, 24 hr, 2 and 5 μM
[5] = biological target: T2, Recombinant Set8-His6x, pHIS2 Set8(191-352) (Homo sapiens (Human), UniProt Q9NQR1 191-352); experiment: DSF thermal shift, 125 µM peptide with 20 µM Set8, SYPRO Orange; DMSO control 71.5 ± 1.1
T2 construct: Purified from E. coli BL21 (DE3) RP; also called SET domain of Set8; SetD8; not shown: His6x tag from the pHIS2 vector
T2 sequence: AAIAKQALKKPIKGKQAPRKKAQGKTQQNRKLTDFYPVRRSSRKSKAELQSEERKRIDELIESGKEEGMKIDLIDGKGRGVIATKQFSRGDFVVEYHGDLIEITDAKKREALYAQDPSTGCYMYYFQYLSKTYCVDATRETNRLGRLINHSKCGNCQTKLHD

[6] = biological target: T2, Recombinant Set8-His6x, pHIS2 …; experiment: fluorescent polarization, fluorescein-labeled peptide with serially diluted recombinant Set8
Description: Recombinant Set8 protein was serially diluted in a 384-well plate, followed by the addition of fluorescein-labeled inhibitor peptide in PBS buffer. The mixtures were incubated in the dark for 30 min prior to fluorescent polarization measurements at room temperature on an EnVision Multilabel Plate Reader (PerkinElmer) with the excitation set at 480 nm and emission at 535 nm. Binding curves were generated by fitting the binding data to a hyperbolic nonlinear regression model using Prism 3.0 (GraphPad software, Inc., San Diego, Calif.), which also produced the corresponding dissociation constants (Kd).

[7] = biological target: T2, Recombinant Set8-His6x, pHIS2 …; experiment: cell-based or functional assay

| Molecule | Tm (° C.) [5] | further results |
| --- | --- | --- |
| THHHKHPGG [KBL9] | – | inhibition of Set8 methyltransferase activity (H4K20 methylation) in dose-response (Set8; 50 nM Set8, 10 μM H4K20 peptide, 10 μM SAM): complete inhibition; in vitro specificity among panel of related methyltransferases (Set8; panel of recombinant Set6, Set7, Set8 enzymes): in vitro specificity towards the inhibition of Set8 activity |
| C[C@@H](O)[C@H](N)C(=O)N[C@@H](Cc1c[nH]cn1)C(=O)N[C@@H](Cc1c[nH]cn1)C(=O)N[C@@H](Cc1c[nH]cn1)C(=O)N[C@@H](CCCCN)C(=O)N[C@@H](Cc1c[nH]cn1)C(=O)N1CCC[C@H]1C(=O)NCC(=O)NCC(=O)NCCCCCC(=O)NCC(=O)N[C@@H](CCCNC(=N)N)C(=O)N[C@@H](CCCCN)C(=O)N[C@@H](CCCCN)C(=O)N[C@@H](CCCNC(=N)N)C(=O)N[C@@H](CCCNC(=N)N)C(=O)N[C@@H](CCC(N)=O)C(=O)N[C@@H](CCCNC(=N)N)C(=O)N[C@@H](CCCNC(=N)N)C(=O)N[C@@H](CCCNC(=N)N)C(=O)N1CCC[C@H]1C(=O)N1CCC[C@H]1C(=O)N[C@@H](CCC(N)=O)C(=O)O [KBL9-TAT, THHHKHPGG{6-aminohexanoic acid}GRKKRRQRRRPPQ] (H-THHHKHPGG[Ahx]GRKKRRQRRRPPQ-OH; N-terminus and C-terminus assumed) | – | IC50 (HCT 116 cells [1]; 24 hr dose response 1 nM to 20 nM, tested in HCT 116 and HEK 293 cells, read-out: IC50 for loss of cell viability): ~20 nM; loss of cell viability (HCT 116 cells [1]; HCT 116, 10 μM peptide, 24 hr, DMSO control = 100% viable): up to 80%; concentration after which H4K20 histone lysine methylation decreased [2]: at least 2 nM; increase of sensitivity to doxorubicin treatment (HCT 116 cells [3]): 360%; BrdU incorporation (HCT 116 cells [4]): decreased BrdU incorporation in a dose-responsive manner |
| THHH[Nle]HPGG (also called EP 43) [KBL3] | 85.6 ° C. | – |
| THHH[Nle]HPEQ (also called EP 32) [KBL14] | 81.5 ° C. | – |
| SHHH[Nle]HPHG (also called EP 49) [KBL12] | 78.3 ° C. | – |
| THHH[Nle]HPHQ (also called EP 33) [KBL1] | 86.5 ° C. | – |
| THHH[Nle]HPGA (also called EP 47) [KBL5] | 85 ° C. | – |
| THHH[Nle]HPGE (also called EP 48) [KBL11] | 78.5 ° C. | – |
| SHHH[Nle]HPGT (also called EP 45) [KBL7] | 84.8 ° C. | – |
| THHHKHPGG (also called EP 18; EP18) [KBL9] | 83.5 ° C. | – |
| THHHKHPGG (also: fluorescein label, position not given here, also called EP18) [fluorescein-labeled KBL9] | – | Kd [6]: 33.5 nM and 33.3 nM |
| THHHKHPHQ (also called EP 8) [KBL15] | 75.5 ° C. | – |
| THHHKHPGA (also called EP 22) [KBL6] | 84.8 ° C. | – |
| THHHKHPGR (also called EP 21) [KBL4] | 85 ° C. | – |
| THHHKHPGQ (also called EP 19) [KBL8] | 84.5 ° C. | – |
| THHHKHPHK (also called EP 6) [KBL2] | 85.8 ° C. | – |
| THHHKHPEQ (also called EP 7) [KBL13] | 77.6 ° C. | – |
| SHHHKHPHG (also called EP 24) [KBL10] | 82.8 ° C. | – |
| THHHKHPGG[Ahx]GRKKRRQRRRPPQ [KBL9-TAT] | – | IC50, loss of cell viability (resazurin, 24 hr; HCT 116 and HEK 293 cells) [7]: ~20 nM |

— patent US20220185844A1, “PEPTIDE-DERIVED THERAPEUTICS TARGETING SET8 FOR THE TREATMENT OF CANCER” (NUVOBIO CORPORATION, priority 2019, published 2022)
